This note sets out measurements from patent publication US20150056222A1 (Regeneron, published 2015).

In test [1] the target is T1, monkey (macaca fascicularis) PRLR on HEK293 cells (macaca fascicularis, UniProt A0A2K5WXK1 25-619).
T1 construct: also called mfPRLR; HEK293/mfPRLR
T1 sequence: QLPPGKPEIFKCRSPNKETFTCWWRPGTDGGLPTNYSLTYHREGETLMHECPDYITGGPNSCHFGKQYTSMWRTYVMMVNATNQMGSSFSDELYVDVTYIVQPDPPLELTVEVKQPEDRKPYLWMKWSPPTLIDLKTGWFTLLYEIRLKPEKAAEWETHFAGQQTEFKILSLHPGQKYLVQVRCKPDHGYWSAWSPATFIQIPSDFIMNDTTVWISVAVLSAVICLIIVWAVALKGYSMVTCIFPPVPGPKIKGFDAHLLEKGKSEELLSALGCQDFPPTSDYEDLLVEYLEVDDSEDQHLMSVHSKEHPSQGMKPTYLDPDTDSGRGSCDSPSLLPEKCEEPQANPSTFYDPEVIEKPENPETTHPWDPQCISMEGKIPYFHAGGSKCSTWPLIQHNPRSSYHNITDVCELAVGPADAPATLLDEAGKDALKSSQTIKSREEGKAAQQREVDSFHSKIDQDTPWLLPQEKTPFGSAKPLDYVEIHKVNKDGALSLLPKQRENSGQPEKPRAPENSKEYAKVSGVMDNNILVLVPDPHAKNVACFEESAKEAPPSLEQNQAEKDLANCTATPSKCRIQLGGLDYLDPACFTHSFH
In words: FACS, HEK293/mfPRLR cells. Note: test concentration or dose not given here. In general terms: Flow cytometry measures light scatter and fluorescence of single cells or particles in a stream.

The target in test [2] is T2, mfPRLR.mmh (soluble monomeric macaca fascicularis PRLR) (macaca fascicularis).
T2 construct: soluble monomeric construct; also called macaca fascicularis (mf) PRLR.mmh
T2 chain: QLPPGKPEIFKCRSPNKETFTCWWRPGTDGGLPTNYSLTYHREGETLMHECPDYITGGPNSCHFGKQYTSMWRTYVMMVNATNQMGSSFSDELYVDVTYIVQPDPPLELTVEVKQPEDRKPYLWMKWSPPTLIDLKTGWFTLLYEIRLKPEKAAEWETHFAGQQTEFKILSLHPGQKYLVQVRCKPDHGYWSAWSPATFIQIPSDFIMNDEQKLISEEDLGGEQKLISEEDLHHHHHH
Put plainly: SPR, 37C, mAb capture. As for the experimental part: (§1) Measurements were conducted on a T200 Biacore instrument. Kinetic association (kₐ) and dissociation (kd) rate constants were determined by processing and fitting the data to a 1:1 binding model using Scrubber 2.0 curve fitting software. Binding dissociation equilibrium constants (KD) and dissociative half-lives (t_{1/2}) were calculated from the kinetic rate constants as: KD (M)=kd/kₐ; and […].
Background: Surface plasmon resonance follows binding to a sensor surface in real time, without labels.

The target in test [3] is T3, hPRLR.mFc (soluble dimeric human PRLR) (human).
T3 construct: dimeric construct
T3 chain: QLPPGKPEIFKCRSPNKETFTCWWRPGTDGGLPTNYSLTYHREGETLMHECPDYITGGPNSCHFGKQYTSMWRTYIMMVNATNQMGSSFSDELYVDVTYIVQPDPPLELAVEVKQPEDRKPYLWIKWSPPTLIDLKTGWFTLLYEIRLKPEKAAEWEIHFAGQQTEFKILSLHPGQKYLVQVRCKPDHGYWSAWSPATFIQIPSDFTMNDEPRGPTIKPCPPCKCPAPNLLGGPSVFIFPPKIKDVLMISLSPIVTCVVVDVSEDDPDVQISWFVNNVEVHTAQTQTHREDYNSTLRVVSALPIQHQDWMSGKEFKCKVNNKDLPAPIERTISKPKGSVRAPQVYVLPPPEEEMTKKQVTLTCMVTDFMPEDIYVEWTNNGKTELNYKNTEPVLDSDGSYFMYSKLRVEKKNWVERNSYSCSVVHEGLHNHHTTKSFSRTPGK
Put plainly: SPR, 37C, mAb capture. Here is the method: as §1

For test [4], the target named is T4, hPRLR.mmh (soluble monomeric human PRLR) (human).
T4 construct: soluble monomeric construct
T4 chain: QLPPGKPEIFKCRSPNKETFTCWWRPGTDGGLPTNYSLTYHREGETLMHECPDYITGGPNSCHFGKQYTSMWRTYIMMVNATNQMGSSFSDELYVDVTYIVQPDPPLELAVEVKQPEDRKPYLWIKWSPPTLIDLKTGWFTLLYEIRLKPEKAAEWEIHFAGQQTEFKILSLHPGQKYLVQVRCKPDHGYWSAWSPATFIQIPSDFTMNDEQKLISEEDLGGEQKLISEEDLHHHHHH
In words: SPR, 37C, mAb capture. As for the experimental part:
as §1

Test [5] concerns the target T5, human prolactin receptor (PRLR) on cells (human, UniProt P16471 25-622).
T5 construct: T47D, T47D#11 and MCF7 carry the endogenous receptor; also called hPRLR; HEK293/hPRLR
T5 sequence: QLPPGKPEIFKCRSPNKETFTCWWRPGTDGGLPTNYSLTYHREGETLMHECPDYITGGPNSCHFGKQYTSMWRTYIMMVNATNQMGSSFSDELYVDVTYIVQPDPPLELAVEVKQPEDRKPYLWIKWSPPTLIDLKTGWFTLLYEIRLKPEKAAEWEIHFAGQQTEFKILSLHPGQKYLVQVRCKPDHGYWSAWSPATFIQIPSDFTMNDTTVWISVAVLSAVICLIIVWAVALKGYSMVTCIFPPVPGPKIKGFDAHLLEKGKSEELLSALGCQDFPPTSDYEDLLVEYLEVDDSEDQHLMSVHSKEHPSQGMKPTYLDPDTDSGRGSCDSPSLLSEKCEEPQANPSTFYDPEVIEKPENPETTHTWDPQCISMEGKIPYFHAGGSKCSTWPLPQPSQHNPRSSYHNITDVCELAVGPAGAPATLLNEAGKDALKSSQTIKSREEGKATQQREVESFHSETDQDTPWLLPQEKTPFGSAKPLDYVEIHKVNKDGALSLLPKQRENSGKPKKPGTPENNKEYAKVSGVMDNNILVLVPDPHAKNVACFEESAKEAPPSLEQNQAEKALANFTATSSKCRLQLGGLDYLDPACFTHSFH
Put plainly: FACS, HEK293/hPRLR cells. Note: test concentration or dose not given here.

The target of test [6] is T6, mouse PRLR on HEK293 cells (mouse, UniProt Q08501 20-608).
T6 construct: whole, on cells; also called mPRLR; HEK293/mPRLR
T6 sequence (looked up): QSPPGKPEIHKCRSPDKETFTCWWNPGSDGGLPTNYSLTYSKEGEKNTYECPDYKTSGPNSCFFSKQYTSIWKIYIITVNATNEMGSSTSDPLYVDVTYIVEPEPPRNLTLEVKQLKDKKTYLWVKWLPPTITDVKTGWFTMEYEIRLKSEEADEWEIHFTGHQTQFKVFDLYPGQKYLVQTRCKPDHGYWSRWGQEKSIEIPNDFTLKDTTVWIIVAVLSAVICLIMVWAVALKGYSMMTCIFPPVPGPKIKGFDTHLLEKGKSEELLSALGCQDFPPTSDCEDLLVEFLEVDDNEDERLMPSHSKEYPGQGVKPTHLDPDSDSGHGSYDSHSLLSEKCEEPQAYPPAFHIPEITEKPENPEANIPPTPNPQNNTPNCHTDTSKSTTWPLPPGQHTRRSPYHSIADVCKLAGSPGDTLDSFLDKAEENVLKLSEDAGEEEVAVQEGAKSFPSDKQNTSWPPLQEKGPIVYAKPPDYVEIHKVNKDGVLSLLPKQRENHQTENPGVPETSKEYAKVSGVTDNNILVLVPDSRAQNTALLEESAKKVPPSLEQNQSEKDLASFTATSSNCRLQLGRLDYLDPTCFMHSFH
In words: FACS, HEK293/mPRLR cells. Note: test concentration or dose not given here.

Test [7] addresses T5, human prolactin receptor (PRLR) on cells. In words: FACS, T47D cells (native PRLR). Note: test concentration or dose not given here.
Test [8] shares this target. Put plainly: cell-based or functional assay.

B1: H1H6765P (antibody, human IgG1, V domains shown)
VH: EVQLVESGGGVVRPGGSLRLSCVGSGFSFDDHGMNWVRQGPGKGLEWVSGFNWNGGSTNYAESVKGRFTISRDNARNSLFLQMNSLRAEDTALYYCVRGRSGWFNDAFDVWGPGTMVTVSS
VL: EIVLTQSPGTLSLSPGERATLSCRASQTINSNYLAWYRQKPGQTPRLLIYGTSSRATGIPDRFSGSGSGTDFSLTISRLEPEDFAVFYCQQYAGLPTFGPGTKVDIK
notes: human IgG1 Fc (H1H)
As to B1, the “FACS Cell Binding (Fold Above Background)” value in test [1] stood at 27 fold above background; in test [5], 38 fold above background; in test [6] it was 1 fold above background; in test [7] it was 40 fold above background. Further, the T½ is 215 min in test [2], 112 min in test [3] and 32 min in test [4]. Further, the “% Internalization relative to Control I (alexa488 intensity in intracellular vesicles at 37 C, T47D cells)” value (from here on “% Internalization relative to Control I”) in test [8] amounted to 186%.

B2: H1H6785P (antibody, human IgG1, V domains shown)
VH: EVQLVESGGGLVQPGGSLRLSCAASGFTFSSYEMNWVRQAPGKGLEWISYISSRGGTIYYADSIKGRFTIYRDNARNSLYLQMNSLRAEDTAIYYCARLSGVDIFDIWGQGTMVTVSS
VL: DIQMTQSPSSLSASVGDRVTITCRASQGISNYLAWYQQKPGKVPKLLIYFASTLQSGVPSRFSGGGSGTDFTLTISSLQPEDVATYYCQRYNSAPLTFGGGTKVEIK
notes: human IgG1 Fc (H1H)
B2: the “FACS Cell Binding (Fold Above Background)” value worked out at 26 fold above background in test [1], 37 fold above background in test [5], 2 fold above background in test [6] and 40 fold above background in test [7]. Also, the T½ in test [2] came to 26 min; in test [3], 99 min; in test [4], 24 min. Besides, in test [8], the “% Internalization relative to Control I” value is 169%.

B3: H1H6793P (antibody, human IgG1, V domains shown)
VH: EVQLVESGGGLVQPGGSLRLSCAASGFSFSIYAMSWFRQAPGKGLEWVSAINGRGDGTHYADSVKGRFTISRDNSKTTLYLQMSSLRAEDTAVYYCAKPVMSTNGFDIWGQGTMVTVSS
VL: DIQMTQSPSTLSASVGDRVTITCRASQSISSWLAWYQLKPGKAPKLLIYKASNLESGVPSRFSGSGSGTEFTLTISSLQPDDFATYYCQQYNIYWTFGQGTKVEIK
notes: human IgG1 Fc (H1H)
As to B3, the “FACS Cell Binding (Fold Above Background)” value in test [1] was found to be 32 fold above background; in test [5] it was 2 fold above background; in test [6] it was 2 fold above background; in test [7] it was 43 fold above background. The T½ is 11 min in test [2], 81 min in test [3] and 11 min in test [4]. In addition, in test [8], the “% Internalization relative to Control I” value turned out to be 180%.

B4: H1H6782P (antibody, human IgG1, V domains shown)
VH: EVQLVESGGGLVQPGRSLRLSCAASGFTFDDYAMHWVRQAPGKGLEWVSGIIWNSGHIGYGDSVKGRFTISRDNAKKSLYLQMNSLRAEDTALYYCARDSGRYQSYFDYWGQGTLVTVSS
VL: DIQMTQSPSTLSASVGDRVTITCRASHIISSWLAWYQQKPGKAPKVLIFKASSLESGVPSRFSGSGSGTEFTLTISSLQPDDFATYYCQQYNTYSRTFGQGTKVEIK
notes: human IgG1 Fc (H1H)
Turning to B4, the “FACS Cell Binding (Fold Above Background)” value was determined as 32 fold above background in test [1], 41 fold above background in test [5], 4 fold above background in test [6] and 43 fold above background in test [7]. For the same molecule, the figures for the T½ in test [2], in test [3] and in test [4] were 15 min, 89 min and 16 min, respectively. The “% Internalization relative to Control I” value in test [8] was 179%.

B5: H1H6976N (antibody, human IgG1, V domains shown)
VH: EVQLLESGGGFVQPGGSLRLSCAASGFTFSSYAMSWVRQAPGKGLEWVSIISSNGRYTYYADSVKGRFTISRDNSKNTLYLQMNSLRAEDTAVYYCATVTGDWFDPWGQGTLVTVSS
VL: DIQLTQSPSFLSASVGDRVTITCWASQDIDISLAWYQQKPGKAPKLLIYAASTLQSGVPSKFSGSGSGTDFTLTISSLQPEDFSTYYCQQLNSYPITFGQGTRLDIK
notes: also called H2M6976N
Regarding B5, the “FACS Cell Binding (Fold Above Background)” value in test [1] came to 29 fold above background; in test [5] it was 8 fold above background; in test [6], 1 fold above background; in test [7] it was 37 fold above background. For the same molecule, the T½ in test [2] turned out to be 3.7 min; in test [3], 82.6 min; in test [4], 3.7 min. In addition, the “% Internalization relative to Control I” value in test [8] worked out at 170%.
